From patent publication US20140287985A1, “NOVEL USES OF ELAFIN” (Proteo Biotech AG, priority 2010, published 2014)
pKi: −log10 of the molar value.

What was measured:
human leukocyte elastase = molecular target: T1, human leukocyte elastase (Homo sapiens, UniProt P08246); test: Inhibition of leukocyte elastase (Ki); assay type: biochemical
T1 sequence (P08246 30-267): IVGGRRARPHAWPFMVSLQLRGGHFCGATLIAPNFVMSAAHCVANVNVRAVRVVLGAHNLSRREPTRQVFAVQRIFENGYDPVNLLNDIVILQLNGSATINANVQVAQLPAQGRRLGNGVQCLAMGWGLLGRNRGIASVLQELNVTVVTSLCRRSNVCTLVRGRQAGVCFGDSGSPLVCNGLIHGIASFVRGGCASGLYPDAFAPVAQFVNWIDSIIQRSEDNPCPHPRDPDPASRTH
Text: The invention generally relates to novel uses of polypeptides comprising the sequence depicted in SEQ ID NO: 1 or homologue, derivatives, or fragments of the sequence depicted in SEQ ID NO: 1, for the treatment of medical conditions for which a use of […] has not yet been contemplated. […] Experiments for measuring the activity of leukocyte elastase and its inhibition can be conducted by the method described in European Patent EP 0 402 068. As used herein, the term “homologue” refers to peptides or polypeptides which share a substantial degree of homology on the amino acid level with the sequence of SEQ ID NO: 1 over a certain stretch of its primary structure. In particular, the term “homologue” relates to polypeptides having a sequence (or comprising such sequence) which differs from the sequence depicted in SEQ ID NO: 1 by the substitution (or deletion) of one or more single amino acids. Generally, any amino acid from the sequence depicted in SEQ ID NO: 1 can be deleted or substituted against another amino acid as long as the inhibitory activity of the polypeptide is not lost. Further polypeptides are also included which differ from the sequence of SEQ ID NO: 1 by the insertion of one or more additional amino acids. “One or more” in the above context always refers to 1-50, preferably 1-20, even more preferably 1-10, most preferably 1-5. […]

Staphylococcus aureus = conditions: cited from earlier work
rats = test: Biocompatibility: 14 days continuous intravenous infusion in rats; assay type: in vivo
Method: Rats were treated with up to 100 mg elafin/kg/day over a period of 14 days by continuous intravenous infusion.

elastase = test: Stability of Elafin to sterilization, elastase inhibitory activity; assay type: biochemical
Method: (§1) Lyophilized samples of 300 μg Elafin were sterilized either by heat sterilization or by ethylene oxide sterilization in a suitable standard sterile packing material. After sterilization, samples were dissolved in 300 μl distilled water. Elafin was quantified by HPLC (reverse phase C8-separation medium) and by determination of elastase inhibitory activity.

[1] = Plasma Elafin levels (ELISA) in patients undergoing esophagectomy; assay type: in vivo, human
Method: Blood samples were removed at the intervals indicated and plasma was prepared and stored frozen at −20° C. Plasma Elafin levels were measured using an ELISA.

IL-6 = test: Serum IL-6 2 h after esophagectomy (immunoassay); assay type: in vivo, human; conditions: 200 mg i.v.; 2 h postoperatively; versus placebo
Method: Blood samples were taken 2 h after finishing surgery and serum was prepared. The serum level of IL-6 was measured using a routine immunoassay (“Immulite, IL-6”, available from Siemens Medical Solution Diagnostics).

[2] = Stability of Elafin to sterilization, quantified by HPLC; assay type: physicochemical
Method: as §1

[3] = Plasma Elafin levels (ELISA) after subcutaneous injection in a healthy human volunteer; assay type: in vivo; conditions: 100 mg subcutaneously, n = 1
Method: 100 mg of Elafin physiological saline were injected subcutaneously into the abdomen of a healthy human volunteer. Blood samples were removed at the times indicated in FIG. 9 and plasma prepared and stored at −20° C. The plasma Elafin levels were measured using an ELISA.

Pseudomanae aeruginosa = conditions: cited from earlier work
[4] = molecular target: T2, leukocyte elastase activity in the serum (Homo sapiens, UniProt P08246); test: Phase I: serum elastase activity after single intravenous infusion in healthy male volunteers; assay type: in vivo
T2 construct: from tissue; host or cells: human serum (ex vivo, after in vivo dosing of Elafin)
T2 sequence (P08246 30-267): T1 sequence (P08246 30-267)
Method: In order to assess the potential pharmacological effect of administered Elafin the inhibition of leukocyte elastase activity in the serum was measured.
The data presented in FIG. 7 were obtained in a Phase I clinical trial.
Within each dosage group the median elastase activity is shown relative to the predose value at t=0 min.

serum elastase [5] = molecular target: T3, serum elastase (Homo sapiens, UniProt P08246); test: Serum elastase activity after subcutaneous injection in a healthy human volunteer; assay type: in vivo; conditions: 100 mg subcutaneously; within the first 30 min-4 hours
T3 construct: from tissue; host or cells: human serum
T3 sequence (P08246 30-267): T1 sequence (P08246 30-267)
Method: 100 mg of Elafin in physiological saline were injected subcutaneously into the abdomen of a healthy human volunteer. Blood samples were removed at the times indicated in FIG. 10 and serum prepared and stored at −20° C.

[6] = Phase I: plasma Elafin concentrations (ELISA) after single intravenous infusion in healthy male volunteers
Method: Each dose was administered to 6 individuals. After Elafin administration blood samples were taken at the indicated times from each volunteer and the plasma prepared and frozen to −20° C. Elafin in the plasma samples was quantified using an ELISA.

[7] = Period of postoperative intensive care (ICU) after esophagectomy; assay type: in vivo, human; conditions: 200 mg i.v.
Text: After surgery all patients were routinely admitted to the intensive care unit (ICU) at least overnight. Patients were maintained in the ICU for as long as the treating physician considered necessary.

serum elastase [8] = molecular target: T3, serum elastase; test: Serum elastase activity (photometric assay) in patients undergoing esophagectomy; assay type: in vivo; conditions: 200 mg i.v. over 30 min, beginning 15 min before surgery
Method: Blood samples were removed at the intervals indicated and serum was prepared and stored frozen at −20° C. Serum elastase activity was determined using a photometric assay.

IL-8 = test: Serum IL-8 6 h after esophagectomy (ELISA); assay type: in vivo, human; conditions: 200 mg i.v.; 6 h postoperatively; versus placebo
Method: Blood samples were taken 6 h after finishing surgery and serum was prepared. The serum level of IL-8 was measured using a commercially available ELISA, (“Immulite, IL-8”, available from Siemens Medical Solution Diagnostics).

CRP = conditions: 200 mg i.v.; first postoperative day; versus placebo
Method: Patients undergoing esophagectomy for esophagus carcinoma were administered either 200 mg Elafin in 250 mL physiological saline (verum) or 250 mL saline (placebo) i.v. over a period of 30 min beginning 15 min before the commencement of surgery. Serum was prepared from blood samples which were taken on admission and on the day after surgery. The serum levels of CRP were measured using a commercially available ELISA. (CRPL 3, cobas®, available from Roche/Hitachi).

[9] = rats, up to 100 mg/kg/day, 14 days continuous i.v. infusion

Elafin: Human anti-protease polypeptide of 57 amino acids, about 6 kDa (SEQ ID NO: 1); reversible inhibitor of neutrophil elastase and proteinase 3 (AQEPVKGPVSTKPGSCPIILIRCAMLNPPNRCLKDTDCPGIKKCCEGSCGMACFVPQ; listed as Homo sapiens)
pKi (human leukocyte elastase): ~10.00 | kill Staphylococcus aureus (Staphylococcus aureus): kill | side effects (rats; intravenously to rats): without any side effects | body weight (rats; [9]): Neither food consumption nor body weight was influenced | clinical signs of haemolysis or cytotoxicity in skin, eyes, mucous membranes, lungs and circulation (rats; [9]): no clinical signs of haemolysis or cytotoxicity were observed | food consumption (rats; [9]): Neither food consumption nor body weight was influenced | mortality (rats; [9]): No mortality | Inhibitory activity (elastase; Control (room temperature)): 100% | Inhibitory activity (elastase; Ethylene oxide sterilization): 101% | Inhibitory activity (elastase; Heat sterilization): −19- % | half life estimated from plasma levels in esophagectomy patients ([1]; 200 mg i.v. at the beginning of surgery): at most 2 h | period of significant plasma Elafin concentrations after the end of the operation ([1]; 200 mg i.v. over 30 min, beginning 15 min before surgery): up to 6 h | diminution of postoperative increase in serum IL-6 (IL-6): about 80% | HPLC (Elafin quantified) ([2]; Control (room temperature)): 108 µg | HPLC (Elafin quantified) ([2]; Ethylene oxide sterilization): 100 µg | HPLC (Elafin quantified) ([2]; Heat sterilization): 0 µg | time of peak plasma concentration after administration [3]: about 60 min | kill Pseudomanae aeruginosa (Pseudomanae aeruginosa): kill | Median t50% (duration of serum elastase inhibition to a threshold level of 50%) ([4]; 20 mg i.v.): 40 min | Median t50% (duration of serum elastase inhibition to a threshold level of 50%) ([4]; 200 mg i.v.): 480 min | Median t50% (duration of serum elastase inhibition to a threshold level of 50%) ([4]; 400 mg i.v.): 720 min | period of pharmacologically relevant elastase inhibition ([4]; doses of 100-400 mg i.v.): up to 720 min | inhibition of serum elastase ([4]; single i.v. infusion over 30 min, various doses): rapid and potent inhibition | inhibition of serum elastase activity (serum elastase [5]): potent inhibition | half-life of elafin in plasma ([6]; on average): 1.92 h | mode of elimination from plasma ([6]; single i.v. infusion, healthy volunteers): eliminated in two first-order processes | period of postoperative ICU care required ([7]; compared with placebo): significant reduction | reduction of necessity for intensive care ([7]; meaning of 'significant reduction' (at least 25% or one day)): at least 25% | serum elastase activity during the period of surgery (serum elastase [8]): markedly reduced | serum elastase activity in the course of the subsequent 3 postoperative days (serum elastase [8]): recovered to slightly less than the preoperative level | diminution of postoperative increase in serum IL-8 (IL-8): about 70% | diminution of postoperative increase in serum CRP (CRP): about 70%
